Values quoted from earlier work as cited in patent US20240277840A1, “SUPERCONCENTRATED FORMULATIONS OF BIOACTIVE AGENTS” (UPKARA, INC., priority 2021, published 2024).

Conditions: intraperitoneal (IP) administration, preclinical

## catumaxomab
  local concentration of the antibody in the ascites fluid: high local concentrations
  systemic exposure, detectable in plasma: < 5%
